Source: PMC10069731 (Communications Biology, 2023)

How the values were obtained:
[1] = target: SARS-CoV-2 WT spike ECD, 6P-stabilized (SARS-CoV-2, WT (ancestral), UniProt P0DTC2, stabilised); assay: ELISA; details: both partners purified
[2] = target: SARS-CoV-2 Omicron BA.4/5 RBD (SARS-CoV-2 Omicron BA.4/5, strain); assay: BLI; details: both partners purified

B1: rabbit monoclonal antibody (RmAb) 1H1, IgG (antibody, V domains shown)
VH: QSLEESGGDLVKPGASLTLTCTASGFSFSSGYDMCWVRQAPGKGLEWIACIGTGSSGNIYYASWAKGRFTISKTSSTTVTLQMTSLTAADTATYFCARDDADYAGPDYFNLWGPGTLVTVSS
VL: DIVMTQTPASVSEPVGGTVTIKCQASESISNWLAWYQQKPGQPPKLLIYAAFTLASGVPSRFKGSGSGTQFTLTINGVECADAATYYCQQTYSSRDVDNVFGGGTEVVVK
binding result [1]: binds | Kd [2]: 1.33 nM
